Consider 1 substance from US20220153838A1.

For the assay, the target named is CD19 (UniProt P15391). The assay is described as follows: cell-based or functional assay.
Chain of UniProt P15391 (P15391 20-556 limits assumed): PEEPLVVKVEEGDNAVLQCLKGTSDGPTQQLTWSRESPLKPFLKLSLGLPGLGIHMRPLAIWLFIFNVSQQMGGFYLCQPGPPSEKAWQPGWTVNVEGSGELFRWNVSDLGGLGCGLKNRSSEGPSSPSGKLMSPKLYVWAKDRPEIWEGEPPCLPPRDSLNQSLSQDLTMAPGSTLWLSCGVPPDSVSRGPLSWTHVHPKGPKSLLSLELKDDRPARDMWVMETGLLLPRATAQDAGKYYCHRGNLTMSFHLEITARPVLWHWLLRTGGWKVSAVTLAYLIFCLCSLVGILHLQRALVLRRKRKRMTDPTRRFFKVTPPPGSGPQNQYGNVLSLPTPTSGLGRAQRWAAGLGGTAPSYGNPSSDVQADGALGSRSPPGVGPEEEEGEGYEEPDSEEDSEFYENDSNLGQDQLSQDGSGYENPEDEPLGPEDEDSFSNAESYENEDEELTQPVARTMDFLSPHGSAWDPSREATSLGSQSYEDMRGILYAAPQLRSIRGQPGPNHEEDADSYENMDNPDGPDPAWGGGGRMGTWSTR

Chain of FMC63-CD8BBZ CAR (Q07011 209-255): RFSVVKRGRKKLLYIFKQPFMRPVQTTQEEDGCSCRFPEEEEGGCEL

In the case of FMC63-CD8BBZ CAR, the IFNγ ELISA, CAR T-cells cultured overnight with CD19-K562 cells was found to be 44300 pg/mL IFNγ and the IFNγ ELISA, CAR T-cells cultured overnight with primary CLL cells (CD19-Positive Targets) came to 13900 pg/mL IFNγ.
